Tested on: S6 peptide (RRRLSSLRA)

Chain of Full-length human Pim-1 kinase (residues M1-K313) with N-terminal HexaHis tag and thrombin cleavage site (chain, as listed by the source): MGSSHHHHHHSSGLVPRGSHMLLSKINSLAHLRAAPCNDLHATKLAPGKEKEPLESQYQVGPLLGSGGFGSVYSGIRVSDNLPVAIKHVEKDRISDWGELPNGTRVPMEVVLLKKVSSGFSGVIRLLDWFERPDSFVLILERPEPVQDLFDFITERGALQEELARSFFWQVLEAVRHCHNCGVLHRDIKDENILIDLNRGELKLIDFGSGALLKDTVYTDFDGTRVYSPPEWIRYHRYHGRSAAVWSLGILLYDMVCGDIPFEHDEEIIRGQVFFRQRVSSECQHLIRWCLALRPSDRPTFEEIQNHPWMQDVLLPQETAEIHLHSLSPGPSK

Full-length human Pim-1 kinase (residues M1-K313) with N-terminal HexaHis tag and thrombin cleavage site
peptide Km (coupled-enzyme kinase assay): peptide Km=51±2 µM

— patent US20070031956
